# Laboratory results reported in the domain aggregation screens of Martell et al. (2025).
# Test: soluble fraction after stress (log2 fold change); higher = more stays soluble; pooled small domains, quantitative proteomics
# Settings: stress: pH 4
# In short: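 Pooled custom libraries of small protein domains were subjected to pH 4 and measured by high-throughput quantitative proteomics. The log2 fold change in soluble amount per domain is reported, higher values meaning more remained soluble. This is used as a measure of aggregation propensity.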
row,Sequence,soluble fraction (log2)
1,HMKNHSTFKSVLSNIEFPINERISGHAIQNPILGLIKADHPNFSSDQYIAISELNFYREKYISNYLLTEI,-1.6
2,HMSKNTFIGNIDDKELYVGSGRYGPFMLYDGKFTNITRYLSDESKELTDITIDDYSKIVNNARPK,-1.5
3,HMTDITSAITRLNKYNKSGTPLTIDSVTPEALQTLQAKVSSAFEIGAVNQQTYDDVTKDIATLQQYLSSA,-0.102
4,HMAQISDEGLLRGLIVEMFEANPAVVEELLGGRDRKKGFVIGQIMKKTKGMANPALLDQLFYEELEKL,-1.31
5,HMETEQVEMIRVVGMHVDEAKKALLDLGLSPEIKYEESSSYDAGTVLRASVQDGLMIDKGTNIVLTVAEA,-0.549
6,HMKSLDDVISKFRPTGSENKIDFRKRVISEIHAQGFFKIKGSVNHVAKALGVTRYTVYNYLDKLND,≥ 0.43
7,HMPGTPADQVAELQTKVGTETKTGDMITQDDVKLLQTALDPLAKMNDRIQAAKILESKGIVTSDGNLRT,0.0934
8,HMQMSDTAAIGKIVDEVFAENPAALEDYAKGKTNVVDWLTGQVMKKSRGQANPGIASELVQKRLADF,0.101
9,HMPNILLSVKDASVAISVSSKMVRLLIASGRLKAVNLGKRMTRISLQELTDFAQRQGGNVVLP,-0.514
10,HMAAESWTEKSRALAAAGLVVMGRDAQTKIEELTNLAPLIEAANASNTRLLTSQSIDELLSIVPTEENL,-0.0379
11,HMTNNFIVTWRNYNEEVLEIDVNVKKGSMPKYNGKTPEREGYQFVGWDPEITEVTKDITYVAQFM,-0.0457
12,HMVTTDPIADMLTRIRNASSQKHKSVDVPASKEKLAIAQILFEEGYIKSFEEIKEENNQGVIRITLKYTEK,-0.0598
13,HMGMNSGQADFRGISLALSVDAEAEAQRLFTALADGGQVQMPLSKTFFSPAFGMVADRFGVGWMVVTN,-0.0936
14,HMPLQLPEPMAELARNGETARLAEALKQGLDIDLRDGKGNTLLMIAAYQGRAETVAMLLKAGA,-1.42
15,HMFAATGTVNTEGSSLRLRAEASTSSSVLKQLSHGTQVDVLSGLVDGWYQVSYKGTTGYVSGEYLTVTE,-0.000126
16,HMIKEYEVLNYVTYEYDEIKKKLEEDFGIIVLMKEAYSDETPAGIIMDQDVEQGRIFKEGATNTITFTVS,-1.2
17,HMNTKQRTAVMRILKQSSDPVSADDVFAALKDEYPSLALSTVYRNLERFADESMVKKDVWSDGIVRYSLAD,-0.471
18,HMRTKLEEAVEWLQEQLNDGPVLSKELESEAKAADILPGTLRRAGEALGVVKQKQGGRGGWTWSLPR,≥ 0.43
19,HMTAGYFTRGSHQDEVLRIQGTPSGVNKYSDHEVWNYGLSSVDISLRDRRVTEWNNISGNLKV,-0.35
20,HMDRTIGEIGLVTETIDSTLESGRVMVDGLSWKARTSDNTVLEAGTRVQVKEIHGVTLTVEKA,0.147
21,HMNVLLGISELSHATGVTPAQLRYWVSQGYIKNYGSNKKNKFSLETVFMVRSIKIFQNQGYTLSASAKRAA,-0.285
22,HMLKVHPRDQEENRLLLLKGERLYEESTGDTRVMIDMWLRKFEEALNSRSRENIEDARRELKEQLAELDN,-0.312
23,HMIQQFTYAFAKDKGVVVLPGRDVLTLGMRAGADPLVLLEARRALGSSFELEPLDRDTYERTLADVFTADA,-1.41
24,HMVAMLDASYRGVMQTISTLLAQGNTERAYDEAVNARGQMSKQQWNNLANLIWERTGQKIDSGVSYK,-0.00781
25,HMAKQEPTDNGYDIYKVTASVLNVRNGAGTSYAVAYQLSKEDYVEVVSIDKGWAKLKDGKYVSADWITLYK,-0.596

row,Sequence,soluble fraction (log2)
1,HMKIDANTFTSIEKQLFVLLSKTPTPMGSIFVALAKEDKEAVWEVIHFLEAENRLIMNEDGTIQL,-1.09
2,HMGIPVSIGQLDFNQARGNLALQVRASDFAALEQLRQRLGQTGESVQLGSASRDGDAVSARVVIGGQ,-0.0672
3,HMDDLATAYKAMGVDASISDKDLKRAYRKLMSQHHPDKMIAKGVPADMVAMATEKTQEIQAAYDLIERSR,0.0752
4,HMRYPLPYAFARSQQLLLEETDDGRYTLWMSSHPARSAVGEVSRKYGVQTFEVLADGPLAQRISAAYAQ,0.0965
5,HMTVADMQQKANVKRRNSNSHEAILDATVKLLGSSGYIDFSIEKVASQAGVGKQTIYRWWPSRADLVLEVW,0.223
6,HMSAIKSVTTQLDNTKLRTGPDVSYQYTQSYPANTKLTYINKSGTWYQVKDADGNTGYVASWVVTPSE,0.387
7,HMNTFDLSKLEEIILASRDKAMKTKEFTELDNLKNLFITAGLDVQMSKNGIKLIKGPKFNSSLLEDF,-0.741
8,HMKISELAKKVIASGRVTQWAKHPHIYFVNGMRKVAIELDVNGVFSISMRYYPYDPADRELVENLIRGD,-0.572
9,HMPGLSQAEAQSLLIAYLAQQGRTLELIPLGQSGDVWRFSGRESDGTVVSFFMVSRTDGTISEVPVPP,-0.992
10,HMPNSIKAPAYLHNIARIYDHVLIDVEKASSAYEKLIKKYPNHPLSINAKLYLENAFNRSDEELLNMIKEN,-0.624
11,HMLAKNDSGLNNHTFNAIRDALLEALADGPAEAKKLTENISFPSDKIITVIRFLADHDDRFSLEDGILSLT,-0.846
12,HMQKWILVNKQGRLSGILDHRAFNTRESATAWFQRTSDISGGTIKIDDYYYVLKNEEYKLLKE,-1.34
13,HMTVMTGSQRRKKILELMRDAKEPLSGGALGKETGVSRHVVVQDIALLRTQGYPIVATARGYIINE,≥ 0.43
14,HMTLVKRSAMVTAWSEFAGGRVNSKLIALQNGKAGDWIELENPQSGRKLRGRVQSDGSVRLGS,0.017
15,HMTNQKEITYSQFRQELDQGSIKSVSLQGSRIRGTYVDGGISFRTLAPNDADLIPSLMKHKVDIQVLPED,0.0675
16,HMTIKLFPNPSTDFIRVSELSAKENYKIYTILGSEIKRGSVSNNETIDIRNLNSGVYLLKFDNGTTKKIVK,0.124
17,HMVLGDQTFQSASAPKVFFGGDAAYGPKNIITAVAHGHDAAVSIDRFLHGEDVSKRPGPQVNLVS,0.207
18,HMPVGVPGVVYNTDSLNVRKGAGTNYDIVSKLKRGSVIEVLEQTAVDGTVWGRIAEGWVNMEYVSL,-0.363
19,HMFERINLIGVNGTTKKRSALVRLLDGEIVKIGVGDSLNGGQVVDISPATLTYLKSGKSIMLTLPK,0.22
20,HMWMQKILGNYIAARRKELGMTQANLAEKIHVTDKAVSRWERGVGLPDIENLEALAKALEVSLVSLMQGKT,0.22
21,HMNYKLESYLKKVDDQLNFIPVSDKADILSELKNTFYERLLNGQTEEEILDEMESPRELALSYMSES,-1.38
22,HMKQETLNEIGTKIRKLRESKNLSIQEFADKLEMEYNNVIRIEKGRTNFTIGTLVKIANSLEVNLKDI,-1.01
23,HMQVPDLYRTLGVGRDATTEAIEAAYVGWQARLSAGEPISTQEWERLRYAHEVLSNPQRRSLYDSLVAET,0.0568
24,HMNNTIKFSVDIKNSGKRLDIFLSENVTQYTRSYLKRLIENSHVKLNNKILNSPSTKVKFQDQIIINNIE,0.0707
25,HMAEKAVELTENEKAIQTILSNGALEIGELKTKLELSGKQWDVALKGLAKHGITQVSKVEGVVTVGL,0.124

row,Sequence,soluble fraction (log2)
1,HMSSAMDMISRDVRNADSISISTTTYSKKIDLYNFDRNGDIEELHSYSAKNDLGILYNDEPI,0.191
2,HMIENPGQTFERIAGKITRTLRTGPLRIQQLDLLFSESGEQVMDVLRAMAENGEILIKDDTIQWNGHN,-0.387
3,HMFDLENIRLTLARRLNVAAHLRPKYVAGFTLLLKQNFPEQNAEDLLNRLEHNQWLKVNQREIEYSPRLLM,-1.23
4,HMERLTVVPELLKRSLSEAQPLVTSARLRLEVSGGAPEDTSRAIVVGQKPPPGTRVQVGTTVIVTVQIQRP,-0.403
5,HMAKRYFVTTGVRVRTKPDTANSEVLTVLDEGSEIDYKGDYNNEWVKINYNGQEAYIAKQYVRSEE,-0.13
6,HMSILSRREHEIMQWVKGGKTNIEIAQILGISARTVRNHLQNVFRKLDVINRAQAVFEVERRR,-0.639
7,HMDVFPDESLKAWLIEMGFKLDQKKMNVFTVLRRMLLQTAPSVKEFRILEIVLQQSRRKLKELNDLKKS,-0.36
8,HMEVDWLEVEKVIVSSSYSWMENSPKVKLLQEYIGVTADGIYGLGTWGAHRTHAVDLGFINLSYPIP,-1.69
9,HMTNKSKQRRNEILRASQELFNKKGFHDTSINDIMRRVGAAKGVFYYYFETKDQILDTLIEQHIA,-0.471
10,HMEKIDEDIMDVLKKKAEVSGISLGVLKSIYEKAVKQYKLGHEIGQVKEQYAMQKVNTHLLENK,0.169
11,HMKLPNGYGGIAKLSGKRRNPWRVRVTKGWSVDEQTGKAKQLFSTLGYYPTRKDALAALSAYNQNP,0.22
12,HMAGISQGLAENVERRITTLLREQKEVPVHDIDFPGISRETVGQVLHQMVQEEKLLLDDGMISLSPNQ,-0.229
13,HMSKSIEEIYDEAIRSLANEEYDSAKKLFSYLIDNFSDPEKLPLSLFWLGEIEFSSSNFDQSKIHYIE,-1
14,HMTLFDESGYTARELEIIREVANGLSNKEIADKLFLSEGTVKNYITGILAKENLSHRTALAVYYLTGRK,-0.558
15,HMNVDIVEITKNSSPNQISKVIDIGAIQIVEDLMSFGIMKAIDTPLEDSEIEQLLEKYNLIVDLIE,-2.19
16,HMTVAEVEDRMEASRVRQALDAVGEPHRTTIALAYFTGLTHTEIAQRMGVPLGTVKSRIRDGMAKMRTHLG,-0.172
17,HMDSQKKNETLSSTADEIIKNYAGKRDLSEESMEQLEQFQKDMRGADVNIFTAAQIRMLDQIFQENLH,0.0679
18,HMTVSADQTAADAVIKLINAIGTVSENSGSAISAARSGYDALTDTQKKLVTNYNKLTQAEQVFSSLPS,-0.315
19,HMTLSDDEFEIIKSLIIDTLKEEALTINALTKKINHKEAKTIQVIRFLLDNGLVAENNLMKLFVI,-1.54
20,HMTLQEFYARVGGDYNATLSRLPSEALVKKFILKYPGDPSFAQLKDALAAQDWELAFRASHTLKGVAQN,-0.493
21,HMLPANGEAIYHYLASGAIKGVGPVTAQRIVDKFGEDTFDVLENNPLWLAEIKGITRKTAENIGAAFAAQF,-0.263
22,HMVSLTGEWRPSKDALDILITKGGINPNFIDDAVPEFILYWRDRGDVSNTWDSKFIQHVRRQWQFYTGI,-1.66
23,HMAITLEQFLSVNPHIRNNLYGNAVELVKDKDFSVLSDKLKASSKWANEPSLYKILSHYDEIIS,0.207
24,HMEKRRQEIVELVKRESEISFAELKQHFPEVSEVTLRKDLKYLDSTLQIIRIHGGAKSLPAAI,-0.582
25,HMDGYTAVDKAVSDQYYTKENQLYFVSMGNFFSLGAKKIEGADISSFQILTTEYARDLQHLYFNGKV,-0.367
